Patent US20240239878A1 (SHANGHAI QILU PHARMACEUTICAL RESEARCH AND DEVELOPMENT CENTRE, published 2024)
Substitutions are numbered along the chain they refer to. Read-outs that look alike come from different tables or passages of the source. Values belong to the binder of their own block, whether it stands above or below them.

Columns and labels:
[1] = biological target: T1, human DLL3 on SHP-77 cells (human, UniProt Q9NYJ7 27-618); experiment: flow cytometry, SHP-77 cells
T1 construct: also called DLL3-expressing cells (SHP-77)
T1 sequence: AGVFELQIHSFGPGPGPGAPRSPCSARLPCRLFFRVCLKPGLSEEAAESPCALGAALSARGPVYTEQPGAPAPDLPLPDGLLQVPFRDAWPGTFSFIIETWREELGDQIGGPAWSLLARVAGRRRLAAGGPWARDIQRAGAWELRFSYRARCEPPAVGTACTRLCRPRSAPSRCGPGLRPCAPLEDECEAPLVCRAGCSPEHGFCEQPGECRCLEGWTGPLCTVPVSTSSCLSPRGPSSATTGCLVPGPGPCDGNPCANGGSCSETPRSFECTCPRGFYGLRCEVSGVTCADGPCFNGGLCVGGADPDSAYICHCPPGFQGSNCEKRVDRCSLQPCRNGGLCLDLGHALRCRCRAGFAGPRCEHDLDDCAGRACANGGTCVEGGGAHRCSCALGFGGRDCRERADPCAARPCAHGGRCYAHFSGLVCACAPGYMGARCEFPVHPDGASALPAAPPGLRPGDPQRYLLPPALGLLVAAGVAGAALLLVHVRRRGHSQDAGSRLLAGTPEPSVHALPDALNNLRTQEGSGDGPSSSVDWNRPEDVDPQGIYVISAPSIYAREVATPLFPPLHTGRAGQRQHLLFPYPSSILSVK
Description: SHP-77 cells were cultured. The culture medium for SHP-77 cells was RPMI1640+10% FBS. The cells were cultured in a T75 cell culture flask at a 37° C. 5% CO₂ incubator. When using cells, they are washed with sterile DPBS, digested with 0.25% trypsin EDTA for about 5 minutes, and then stopped with a complete medium.
The digested cells were centrifuged at 1000 rpm for 5 min at room temperature. The supernatant was discarded and the cells were resuspended in 100 μL of 1% BSA (in PBS). The cells were counted and adjusted to a cell density of 1E6/m. The dilute cells were plated in a 96-well round-bottom culture plate (corning 3799), and centrifuged at 1500 rpm for 5 min at 4° C. The supernatant was discarded and the cells were stored at 4° C. until use. Antibody samples to be tested were diluted with 1% BSA (in PBS) at a starting concentration of 100 nM, downwards by a 10-fold gradient for 7 concentrations. The cells were resuspended with the diluted antibody at 100 μL/well and incubated for 1 hour at 4° C. The cells were centrifuged at 1500 rpm for 5 minutes at 4° C. and the supernatant was discarded. The cells were resuspended and washed with 160 μL of 1% BSA (in PBS), centrifuged at 1500 rpm for 5 minutes at 4° C. The supernatant was discarded. The secondary antibody (goat anti human IgG Fc PE) was diluted 1:200 with 1% BSA (in PBS) according to the manufacturer's instructions and the cells were resuspended with the diluted secondary antibody, 100 µL/well, and incubated for 0.5 h at 4° C. The cells were centrifuged at 1500 rpm for 5 minutes at 4° C. and the supernatant was discarded. The cells were resuspended and washed with 160 μL of 1% BSA (in PBS), centrifuged at 1500 rpm for 5 minutes at 4° C. The supernatant was discarded. The cells were resuspended in 100 μL of 1% BSA (in PBS), and filtered across a 300 mesh gauze. The mean fluorescence intensity of the PE channels was measured by flow cytometry.
The analyzed mean fluorescence intensity was imported into Graphpad to analyze the median-binding concentration (hereinafter referred to as EC50) of antibody and cell and the top mean fluorescence intensity (Top MFI).

[2] = biological target: T2, human DLL3 antigen protein (Kactus Biosystems, Cat. No. DLL-HM103) (human, UniProt Q9NYJ7 27-492); experiment: SPR (Biacore 8K), antibody captured on anti-human Fc, DLL3 in solution
T2 sequence: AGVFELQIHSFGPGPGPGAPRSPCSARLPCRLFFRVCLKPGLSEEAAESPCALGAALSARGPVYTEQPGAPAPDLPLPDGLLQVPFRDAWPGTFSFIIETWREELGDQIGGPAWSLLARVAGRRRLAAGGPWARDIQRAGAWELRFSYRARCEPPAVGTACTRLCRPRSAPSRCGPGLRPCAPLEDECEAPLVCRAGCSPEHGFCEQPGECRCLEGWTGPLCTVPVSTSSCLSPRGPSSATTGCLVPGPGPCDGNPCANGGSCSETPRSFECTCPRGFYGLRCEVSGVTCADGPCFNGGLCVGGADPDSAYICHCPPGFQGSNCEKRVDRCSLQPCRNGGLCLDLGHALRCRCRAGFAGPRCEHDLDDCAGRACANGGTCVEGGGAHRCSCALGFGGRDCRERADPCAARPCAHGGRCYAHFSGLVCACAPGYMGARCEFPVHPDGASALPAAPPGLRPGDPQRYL
Description: The affinity and kinetic properties of the humanized anti-DLL3 antibody to human DLL3 were analyzed using a Biacore 8K instrument. CM5 chips were activated with EDC and NHS, followed by immobilization of anti-human Fc murine mAb and blocked with ethanolamine.
Human DLL3 was diluted two-fold serially to serial concentrations (100 nM-0.39 nM) and associated for 90 s and dissociated for 600 s at a flow rate of 50 μL/min.
After completion of each round of the experiment, the captured antibody was removed together with the antigen by washing with a 3M MgCl₂ solution at a flow rate of 30 μL/min for 30 s to complete the regeneration of the chip. The raw data were analyzed using Biacore Insight Evaluation Software (3.0.12.15655) software and fitted with a (1:1) Langmuir model with.

[3] = biological target: T1, human DLL3 on SHP-77 cells; experiment: flow cytometry, SHP-77 cells; remark: listed apart in the source
[4] = biological target: T2, human DLL3 antigen protein (Kactus …); experiment: affinity assay with human DLL3 antigen protein (kinetics; method not restated, Biacore as in Example 10 implied)
[5] = biological target: T3, human DLL4 (Sino Biological, Cat. No. 10171-H08H) (human, UniProt Q9NR61 27-529); experiment: ELISA, plate coated with human DLL4 at 1 ug/mL, OD 450nm
T3 construct: also called family protein DLL4
Description: (§1) The antigenic proteins human DLL1 (SinoBiological, cat. No. 11635-H08H) or human DLL4 (SinoBiological, cat. No. 10171-H08H) were dissolved in 1×PBS at a concentration of 1 μg/mL. […] The antigen was washed three times with PBST, 300 μL/well. The antigen was blocked with 1% BSA (in PBST), 200 µL/well, and incubated at 37° C. for 1.5 hours.
(§2) Antibodies to be tested were diluted with 1% BSA (in PBS) at a starting concentration of 100 nM, downwards by a 10-fold gradient for 7 concentrations. The plates were washed three times with PBST, 300 μL/well. The diluted antibody was added to an ELISA plate at 100 μL/well and incubated at room temperature for 2 hours. The antibodies were washed three times with PBST, 300 μL/well. The secondary antibodies (goat anti-human IgG Fc for DLL4 (HRP), 1:20000 dilution; HRP goat anti-mouse IgG (H+L) for DLL1, 1:10000 dilution) were diluted with 1% BSA in PBST. The diluted secondary antibodies were added to the ELISA plate at 100 μL/well and incubated at room temperature for 1 hour. The plates were washed 6 times with PBST, 300 μL/well. The developing solution (TMA and TMB 1:1 mixed) was prepared. The developing solution was added to the plate, 100 μL/well, and incubated in the dark for 5 min. 50 μL of ELISA stop solution was added to the plate and shaken well.

[6] = biological target: T4, human DLL1 (Sino Biological, Cat. No. 11635-H08H) (human, UniProt O00548 18-545); experiment: ELISA, plate coated with human DLL1 at 1 ug/mL, OD 450nm
T4 construct: also called family protein DLL1
T4 sequence: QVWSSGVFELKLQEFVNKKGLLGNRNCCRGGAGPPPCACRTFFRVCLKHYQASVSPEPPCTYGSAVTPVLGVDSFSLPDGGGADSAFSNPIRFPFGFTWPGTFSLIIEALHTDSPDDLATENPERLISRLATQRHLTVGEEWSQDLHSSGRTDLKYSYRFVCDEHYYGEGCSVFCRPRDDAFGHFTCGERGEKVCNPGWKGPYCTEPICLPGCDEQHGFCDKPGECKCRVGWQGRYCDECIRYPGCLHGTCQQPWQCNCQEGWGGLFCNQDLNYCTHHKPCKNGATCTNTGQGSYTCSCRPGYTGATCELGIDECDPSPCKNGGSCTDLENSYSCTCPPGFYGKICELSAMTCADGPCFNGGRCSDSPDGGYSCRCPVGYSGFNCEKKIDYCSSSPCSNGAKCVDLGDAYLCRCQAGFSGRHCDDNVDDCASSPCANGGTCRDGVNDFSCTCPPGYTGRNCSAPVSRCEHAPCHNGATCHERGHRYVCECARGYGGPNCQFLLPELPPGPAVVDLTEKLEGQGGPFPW
Description: as §1, §2

T3 sequence (Q9NR61 27-529 limits assumed): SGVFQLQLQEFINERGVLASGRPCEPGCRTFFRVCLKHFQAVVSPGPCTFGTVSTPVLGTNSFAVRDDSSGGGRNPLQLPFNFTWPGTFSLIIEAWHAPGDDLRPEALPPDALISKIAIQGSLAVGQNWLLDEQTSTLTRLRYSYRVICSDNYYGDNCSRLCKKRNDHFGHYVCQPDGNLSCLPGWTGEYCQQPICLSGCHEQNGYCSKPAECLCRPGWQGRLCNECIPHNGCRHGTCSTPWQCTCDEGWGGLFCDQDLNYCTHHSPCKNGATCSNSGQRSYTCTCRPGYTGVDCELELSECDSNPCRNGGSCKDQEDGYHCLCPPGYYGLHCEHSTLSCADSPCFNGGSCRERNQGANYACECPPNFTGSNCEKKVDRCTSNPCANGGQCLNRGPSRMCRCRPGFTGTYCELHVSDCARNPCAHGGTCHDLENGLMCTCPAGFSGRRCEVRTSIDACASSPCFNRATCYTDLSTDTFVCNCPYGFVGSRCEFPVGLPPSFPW

- EC50 [3]: 0.104 nM
- Top MFI [3]: 1270 MFI
- Kd [4]: 0.105 nM
- koff [4]: 0.000135 s⁻¹
- kon [4]: 1.29e+06 M⁻¹ s⁻¹
B2: hDLL3-3-1-NA humanized antibody variant (antibody, V domains shown)
VH: EVQLVESGGGLVQPGGSLRLSCAASTYTISSGYMGWFRQAPGKEREGVAAIYIGGSTTLYADSVKGRFTISRDNSKNTLYLQMNSLRAEDTAVYYCAAQLRPNAAYHPLDGRKYNYWGQGTLVTVSS

- EC50 [3]: 0.055 nM
- Top MFI [3]: 1010 MFI
- Kd [4]: 5.02 nM
- koff [4]: 0.00611 s⁻¹
- kon [4]: 1.22e+06 M⁻¹ s⁻¹
B3: hDLL3-3-1-QS humanized antibody variant (antibody, V domains shown)
VH: B2 VH with N103Q, A104S

Continued, binder first:

B1: H-46A5A4 mouse hybridoma-derived humanized anti-DLL3 antibody (antibody, V domains shown)
VH: QVQLVQSGAEVKKPGASVKVSCKASGYTFTDHTIHWVRQAPGQGLEWMGYIYPRDGYTMYNEKFKGRVTMTRDTSTSTVYMELSSLRSEDTAVYYCARAFHALDYWGQGTLVTVSS
VL: DIQMTQSPSSLSASVGDRVTITCSASQGISNYLNWYQQKPGKAPKLLIYYTSSLHSGVPSRFSGSGSGTDFTFTISSLQPEDIATYYCQQYSKLPYTFGGGTKLEIK
- EC50 [1]: 1.35 nM
- Top MFI [1]: 1520 MFI
- Kd [2]: 0.811 nM
- koff [2]: 0.000178 s⁻¹
- kon [2]: 219000 M⁻¹ s⁻¹

B4: H2-45E4D7 mouse hybridoma-derived humanized anti-DLL3 antibody (antibody, V domains shown)
VH: QVQLVQSGAEVKKPGASVKVSCKASGYTFTSHWITWVRQAPGQGLEWMGDIYPISGSTNNNEKFRNRVTMTRDTSTSTVYMELSSLRSEDTAVYYCAKIITVGGAYVMDYWGQGTLVTVSS
VL: EIVMTQSPATLSVSPGERATLSCRASQSVRNNLHWYQQKPGQAPRLLIKYVSQSISGIPARFSGSGSGTEFTLTISSLQSEDFAVYYCQQSNSWPLTFGGGTKLEIK
- EC50 [1]: 2.23 nM
- Top MFI [1]: 1610 MFI
- binding result [5]: no binding (tested: 100 nM)
- binding result [6]: no binding (tested: 100 nM)
- Kd [2]: 0.246 nM
- koff [2]: 5.78e-05 s⁻¹
- kon [2]: 235000 M⁻¹ s⁻¹
